{
  "source": "paper PMC9638024",
  "about": "“Functional rewiring of G protein-coupled receptor signaling in human labor” (Cell Reports, 2022)",
  "proteins": {"B1": {"name": "hemagglutinin (HA)-tagged OTR (protein)", "chain": "MEGALAANWSAEAANASAAPPGAEGNRTAGPPRRNEALARVEVAVLCLILLLALSGNACVLLALRTTRQKHSRLFFFMKHLSIADLVVAVFQVLPQLLWDITFRFYGPDLLCRLVKYLQVVGMFASTYLLLLMSLDRCLAICQPLRSLRRRTDRLAVLATWLGCLVASAPQVHIFSLREVADGVFDCWAVFIQPWGPKAYITWITLAVYIVPVIVLAACYGLISFKIWQNLRLKTAAAAAAEAPEGAAAGDGGRVALARVSSVKLISKAKIRTVKMTFIIVLAFIVCWTPFFFVQMWSVWDANAPKEASAFIIVMLLASLNSCCNPWIYMLFTGHLFHELVQRFLCCSASYLKGRRLGETSASKKSNSSSFVLSHRSSSQRSCSQPSTA"}},
  "molecular_target": "FLAG-tagged EP2, P43116",
  "sequence (P43116 whole entry)": "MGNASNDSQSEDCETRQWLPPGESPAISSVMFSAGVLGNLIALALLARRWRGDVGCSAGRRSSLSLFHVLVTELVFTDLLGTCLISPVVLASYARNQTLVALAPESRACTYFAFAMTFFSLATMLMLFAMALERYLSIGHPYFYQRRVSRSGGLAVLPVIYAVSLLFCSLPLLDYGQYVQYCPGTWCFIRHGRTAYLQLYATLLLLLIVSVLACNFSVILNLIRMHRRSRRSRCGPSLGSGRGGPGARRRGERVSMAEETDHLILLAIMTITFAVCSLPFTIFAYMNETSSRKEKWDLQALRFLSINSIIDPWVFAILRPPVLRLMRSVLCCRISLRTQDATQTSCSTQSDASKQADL",
  "assay": "PD-PALM (dual-color photoactivated localization microscopy with photoactivatable dyes); HEK 293 cells stably expressing FLAG-EP2 and transfected with HA-OTR; live labelling with anti-FLAG-CAGE 500 and anti-HA-CAGE 552, fixed, TIRF plane, 25 C; search radius 50 nm, Getis Franklin …",
  "conditions": "other: PD-PALM (dual-color photoactivated localization microscopy with photoactivatable dyes)",
  "data": [
    {"protein": "B1", "values": [
      {"measurement": "percent of the heteromers that are heterodimers (basal)", "result": "heterodimers (∼55% of the heteromers)"}
    ]}
  ]
}
